In patent US20240158521A1 (WISTAR INSTITUTE OF ANATOMY AND BIOLOGY, published 2024):

T1: IL13Rα2 expressed on tumor cells (U87, U373, U251) (UniProt Q14627 27-380, limits assumed)
T1 sequence (looked up): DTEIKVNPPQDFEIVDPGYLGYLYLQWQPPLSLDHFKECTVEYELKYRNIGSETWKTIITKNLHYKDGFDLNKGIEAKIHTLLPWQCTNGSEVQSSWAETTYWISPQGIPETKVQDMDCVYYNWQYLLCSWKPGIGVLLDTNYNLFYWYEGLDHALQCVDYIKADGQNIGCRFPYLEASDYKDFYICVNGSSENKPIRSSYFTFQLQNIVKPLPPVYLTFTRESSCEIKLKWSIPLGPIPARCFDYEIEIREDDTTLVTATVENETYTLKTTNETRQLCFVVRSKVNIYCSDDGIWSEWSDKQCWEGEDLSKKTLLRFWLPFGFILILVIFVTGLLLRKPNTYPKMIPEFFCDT

T2: recombinant IL13Rα2 (Sino biological) (UniProt Q14627 27-343, limits assumed)
T2 construct: Bought protein; construct not described
T2 sequence (looked up): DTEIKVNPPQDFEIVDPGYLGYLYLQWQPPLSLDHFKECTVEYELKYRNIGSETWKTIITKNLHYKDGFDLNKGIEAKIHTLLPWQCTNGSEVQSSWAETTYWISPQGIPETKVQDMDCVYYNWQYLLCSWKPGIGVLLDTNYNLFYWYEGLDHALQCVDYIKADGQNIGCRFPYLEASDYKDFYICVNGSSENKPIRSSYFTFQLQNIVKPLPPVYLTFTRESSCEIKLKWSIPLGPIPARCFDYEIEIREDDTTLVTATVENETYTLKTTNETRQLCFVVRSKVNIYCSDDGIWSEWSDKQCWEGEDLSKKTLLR

T3: recombinant CD3 protein (Acrobiosystems) (UniProt P07766 23-126)
T3 chain: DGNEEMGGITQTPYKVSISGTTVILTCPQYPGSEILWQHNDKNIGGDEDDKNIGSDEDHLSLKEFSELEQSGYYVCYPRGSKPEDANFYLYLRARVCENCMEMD

T4: recombinant IL13Rα1 (Sino biological) (UniProt P78552 22-343, limits assumed)
T4 construct: Bought protein; construct not described
T4 sequence (looked up): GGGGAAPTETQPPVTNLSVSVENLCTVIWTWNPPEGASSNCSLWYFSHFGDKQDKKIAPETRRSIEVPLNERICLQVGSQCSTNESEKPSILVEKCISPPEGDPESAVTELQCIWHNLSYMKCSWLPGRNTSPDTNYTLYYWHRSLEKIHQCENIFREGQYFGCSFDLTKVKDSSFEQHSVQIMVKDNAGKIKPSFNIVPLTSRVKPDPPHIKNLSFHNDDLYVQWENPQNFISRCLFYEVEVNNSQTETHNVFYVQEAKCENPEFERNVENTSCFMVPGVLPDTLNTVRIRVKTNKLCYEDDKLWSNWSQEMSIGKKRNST

T5: IL13Rα1 expressed on tumor cells (UniProt P78552 22-427, limits assumed)
T5 construct: whole, on cells
T5 sequence (looked up): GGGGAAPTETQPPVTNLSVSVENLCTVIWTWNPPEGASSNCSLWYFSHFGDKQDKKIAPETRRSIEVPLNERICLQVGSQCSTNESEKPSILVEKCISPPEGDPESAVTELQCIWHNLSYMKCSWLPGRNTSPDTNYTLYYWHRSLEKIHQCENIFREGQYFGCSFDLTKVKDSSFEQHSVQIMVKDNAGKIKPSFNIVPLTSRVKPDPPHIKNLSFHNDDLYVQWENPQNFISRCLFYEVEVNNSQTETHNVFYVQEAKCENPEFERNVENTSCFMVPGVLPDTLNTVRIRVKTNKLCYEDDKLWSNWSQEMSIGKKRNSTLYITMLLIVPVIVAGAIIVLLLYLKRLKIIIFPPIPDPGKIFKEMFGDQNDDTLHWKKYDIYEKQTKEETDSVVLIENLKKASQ

T6: recombinant IL13Rα2 (Sino biological) (UniProt Q14627 27-343)
T6 chain: T2 sequence (looked up)

B1: PB01-forward (bispecific antibody)
chain: DIQMTQSPSSLSASVGDRVTITCTASLSVSSTYLHWYQQKPGSSPKLWIYSTSNLASGVPSRFSGSGSGTSYTLTISSLQPEDFATYYCHQYHRSPLTFGGGTKVEIKGGGGSGGGGSGGGGSEVQLVESGGGLVQPGGSLRLSCAASGFSLTKYGVHWVRQAPGKGLEWVGVKWAGGSTDYNSALMSRFTISKDNAKNSLYLQMNSLRAEDTAVYYCARDHRDAMDYWGQGTLVTVSSGGGGSEVQLVESGGGLVQPGGSLRLSCAASGYSFTGYTMNWVRQAPGKGLEWVALINPYKGVSTYNQKFKDRFTISVDKSKNTAYLQMNSLRAEDTAVYYCARSGYYGDSDWYFDVWGQGTLVTVSSGGGGSGGGGSGGGGSDIQMTQSPSSLSASVGDRVTITCRASQDIRNYLNWYQQKPGKAPKLLIYYTSRLESGVPSRFSGSGSGTDYTLTISSLQPEDFATYYCQQGNTLPWTFGQGTKVEIKS
notes: Single-chain bispecific T cell engager, VL-VH-VH-VL format: humanized anti-IL13Rα2 scFv fused by GS linker to a modified UCHT1 anti-CD3 scFv; Tested as Expi293F transfection supernatant and as a recombinant purified version, detected with anti-His tag antibody; also called PB07-2134
B2: PB02-forward (bispecific antibody)
chain: DIQMTQSPSSLSASVGDRVTITCKASQDVGTAVAWYQQKPGKAPKLLIYSASYRSTGVPSRFSGSGSGTDFTLTISSLQPEDFATYYCQHHYSAPWTFGGGTKVEIKGGGGSGGGGSGGGGSEVQLVESGGGLVQPGGSLRLSCAASGFTFSRNGMSWVRQAPGKGLEWVATVSSGGSYIYYADSVKGRFTISRDNAKNSLYLQMNSLRAEDTAVYYCARQGTTALATRFFDVWGQGTLVTVSSGGGGSEVQLVESGGGLVQPGGSLRLSCAASGYSFTGYTMNWVRQAPGKGLEWVALINPYKGVSTYNQKFKDRFTISVDKSKNTAYLQMNSLRAEDTAVYYCARSGYYGDSDWYFDVWGQGTLVTVSSGGGGSGGGGSGGGGSDIQMTQSPSSLSASVGDRVTITCRASQDIRNYLNWYQQKPGKAPKLLIYYTSRLESGVPSRFSGSGSGTDYTLTISSLQPEDFATYYCQQGNTLPWTFGQGTKVEIKS
notes: Single-chain bispecific T cell engager, VL-VH-VH-VL format: second humanized anti-IL13Rα2 clone fused by GS linker to a modified UCHT1 anti-CD3 scFv; Tested as Expi293F supernatant and as a recombinant purified version; also called PB08-2134
B3: PB02-reverse (bispecific antibody)
chain: EVQLVESGGGLVQPGGSLRLSCAASGFTFSRNGMSWVRQAPGKGLEWVATVSSGGSYIYYADSVKGRFTISRDNAKNSLYLQMNSLRAEDTAVYYCARQGTTALATRFFDVWGQGTLVTVSSGGGGSGGGGSGGGGSDIQMTQSPSSLSASVGDRVTITCKASQDVGTAVAWYQQKPGKAPKLLIYSASYRSTGVPSRFSGSGSGTDFTLTISSLQPEDFATYYCQHHYSAPWTFGGGTKVEIKGGGGSDIQMTQSPSSLSASVGDRVTITCRASQDIRNYLNWYQQKPGKAPKLLIYYTSRLESGVPSRFSGSGSGTDYTLTISSLQPEDFATYYCQQGNTLPWTFGQGTKVEIKSGGGGSGGGGSGGGGSEVQLVESGGGLVQPGGSLRLSCAASGYSFTGYTMNWVRQAPGKGLEWVALINPYKGVSTYNQKFKDRFTISVDKSKNTAYLQMNSLRAEDTAVYYCARSGYYGDSDWYFDVWGQGTLVTVSS
notes: Single-chain bispecific T cell engager, VH-VL-VL-VH format: second humanized anti-IL13Rα2 clone fused by GS linker to a modified UCHT1 anti-CD3 scFv; Tested as Expi293F supernatant and as a recombinant purified version; also called PB08-1243
B4: PB01-reverse (bispecific antibody)
chain: EVQLVESGGGLVQPGGSLRLSCAASGFSLTKYGVHWVRQAPGKGLEWVGVKWAGGSTDYNSALMSRFTISKDNAKNSLYLQMNSLRAEDTAVYYCARDHRDAMDYWGQGTLVTVSSGGGGSGGGGSGGGGSDIQMTQSPSSLSASVGDRVTITCTASLSVSSTYLHWYQQKPGSSPKLWIYSTSNLASGVPSRFSGSGSGTSYTLTISSLQPEDFATYYCHQYHRSPLTFGGGTKVEIKGGGGSDIQMTQSPSSLSASVGDRVTITCRASQDIRNYLNWYQQKPGKAPKLLIYYTSRLESGVPSRFSGSGSGTDYTLTISSLQPEDFATYYCQQGNTLPWTFGQGTKVEIKSGGGGSGGGGSGGGGSEVQLVESGGGLVQPGGSLRLSCAASGYSFTGYTMNWVRQAPGKGLEWVALINPYKGVSTYNQKFKDRFTISVDKSKNTAYLQMNSLRAEDTAVYYCARSGYYGDSDWYFDVWGQGTLVTVSS

Experiments:
[1] = molecular target: T1, IL13Rα2 expressed on tumor cells (U87, …); test: cell-based or functional assay
[2] = molecular target: T2, recombinant IL13Rα2 (Sino biological); test: binding ELISA, recombinant purified BTE on coated recombinant IL13Rα2
Method: (§1) ELISA plates were coated with either IL13Rα2/IL13Rα1 (Sino biological, […]) or CD3 (Acrobiosystems, 1 μg/ml) overnight at 4C. Blocking was performed with PBST-10% FBS for 1 hour. As primary antibody, supernatants from Expi293F cells transfected with dBTEs was used or pVax as negative control at different dilutions. The cells were incubated at room temperature for 1 hour. Secondary antibody was a goat anti-human fab fragment specific HRP conjugated (Jackson immunoresearch). After 1 hour incubation the blots were developed with TMB solution and read OD at 450 nm. To determine binding kinetics, recombinant BTEs were used at indicated concentrations as primary antibody, and HRP conjugated anti-His tag antibody (Biolegend) or goat anti-mouse fab fragment specific antibody as secondary antibody.

[3] = molecular target: T3, recombinant CD3 protein (Acrobiosystems); test: ELISA
[4] = molecular target: T4, recombinant IL13Rα1 (Sino biological); test: binding ELISA, plate coated with IL13Rα1, Expi293F supernatant
Method: as §1

[5] = molecular target: T5, IL13Rα1 expressed on tumor cells; test: binding to tumor cells (method not given)
[6] = molecular target: T6, recombinant IL13Rα2 (Sino biological); test: ELISA

Binder | EC50 of killing of U87-GFP-Luc cells, 48h luciferase killing assay with recombinant BTE and primary human T cells [1] [ng/mL] | IC50 [2] [ng/mL] | IC50 [3] [ng/mL] | binding result [4] | binding result [5] | IC50 [6] [ng/mL]
B1 | ~0.1 | 21.2 |  |  |  | 
B2 | ~0.1 | 4.2 | 11.2 | no binding | no binding | 
B3 | ~0.1 |  | 0.41 | no binding | no binding | 9.3
B4 | ~0.1 |  |  |  |  | 
